T1: purified recombinant C35 protein generated in E. coli (human, UniProt Q9BRT3 1-115, limits assumed)
T1 construct: Generated and purified from E. coli with cleavage of selection tags; also called hC35 protein; soluble C35 protein
T1 sequence: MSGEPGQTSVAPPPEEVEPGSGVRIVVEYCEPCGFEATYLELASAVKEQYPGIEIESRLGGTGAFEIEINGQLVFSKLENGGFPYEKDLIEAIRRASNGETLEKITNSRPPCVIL

T2: C35 protein, recombinant, bacterially synthesized (human, UniProt Q9BRT3 1-115, limits assumed)
T2 construct: also called hC35 protein; bacterially-synthesized C35
T2 sequence: T1 sequence

B1: hybridoma clone 1B3 antibody (antibody, mouse IgG1, V domains shown)
VH: EVQLQESGPSLVKPSQTLSLTCSVTGDSITSGYWNWIRKFPGNKLEYVGYISYSGGTYYNPSLKSRISITRDTSKNHYYLQLNSVTTEDTATYYCARGAYYGGAFFPYFDVWGAGTTVTVSS
VL: DVQITQSPSFLAASPGETITINCRASKYISKHLVWYQEKPGETKKLLIYSGSTLQSGLPSRFSGSGSGTDFTLTISSLEPEDFAMYYCQQHNEYPLTFGAGTKLELK
notes: Murine IgG1 from BCA34.hC35 immunization
B2: hybridoma clone 3E10 antibody (antibody, mouse IgG1, V domains shown)
VH: B1 VH
VL: B1 VL
notes: Murine IgG1 kappa from BCA34.hC35 immunization
B3: 1B3 monoclonal antibody (antibody, V domains shown)
VH: B1 VH
VL: B1 VL
notes: Mouse IgG1 kappa, tested as hybridoma supernatant
B4: 3E10 monoclonal antibody (antibody, V domains shown)
VH: B1 VH
VL: B1 VL
notes: as for B3
B5: C35 peptide S9 to V17 (peptide)
peptide: SVAPPPEEV
B6: C35 peptide S21 to Y29 (peptide)
peptide: SGVRIVVEY
B7: C35 peptide I105 to V113 (peptide)
peptide: ITNSRPPCV
B8: C35 peptide F65 to L73 (peptide)
peptide: FEIEINGQL
B9: C35 peptide T38 to V46 (peptide)
peptide: TYLELASAV
B10: C35 peptide G61 to I69 (peptide)
peptide: GTGAFEIEI

Columns and labels:
[1] = target: T1, purified recombinant C35 protein …; assay: ELISA, hybridoma supernatant on coated C35 protein
[2] = target: T2, C35 protein, recombinant, bacterially …; assay: ELISA screen of hybridoma supernatants on plates coated with C35 protein
[3] = target: HLA-A*0201 (human, UniProt A*02:01); assay: fluorescence polarization competition, test peptide at 100 uM against fluorescent-labeled peptide on HLA-A*0201; from Ymax, calibrated with irrelevant (0%) and relevant (100%) competitor

% inhibition [3]	other results	Binder
	binding result [1]: binds	B1
	binding result [1]: binds	B2
	binding result [2]: binds	B3
	binding result [2]: binds	B4
96.9%		B5
90.8%		B6
86.4%		B7
74.8%		B8
47.3%		B9
46.5%		B10

Source: patent US20090297440A1 (published 2009)
